Patent publication US20220125947A1 (published 2022)

T1: T cell receptor (TCR) Vγ9 (TRGV9) (human, UniProt Q99603 21-122)
T1 sequence (looked up): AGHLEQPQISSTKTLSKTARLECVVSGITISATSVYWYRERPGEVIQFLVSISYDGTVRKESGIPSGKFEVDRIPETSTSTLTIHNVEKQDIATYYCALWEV

T2: TCR gamma/delta constant region (TRGDC) (human, UniProt P0CF51 1-173; B7Z8K6 1-153)
T2 chain (looked up) 1: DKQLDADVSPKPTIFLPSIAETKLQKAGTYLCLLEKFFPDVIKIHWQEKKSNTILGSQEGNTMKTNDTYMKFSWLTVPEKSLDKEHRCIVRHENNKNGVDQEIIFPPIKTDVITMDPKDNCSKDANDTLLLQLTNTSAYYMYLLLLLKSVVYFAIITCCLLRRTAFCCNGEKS
T2 chain (looked up) 2: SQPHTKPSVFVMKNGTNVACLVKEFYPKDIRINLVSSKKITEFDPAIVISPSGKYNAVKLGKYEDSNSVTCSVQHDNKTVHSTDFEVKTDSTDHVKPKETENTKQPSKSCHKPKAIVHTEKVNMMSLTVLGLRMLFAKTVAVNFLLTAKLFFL


Columns and labels:
[1] = biological target: T1, T cell receptor (TCR) Vγ9 (TRGV9); assay: cell-based or functional assay
[2] = biological target: T2, TCR gamma/delta constant region (TRGDC); assay: cell-based or functional assay
[3] = biological target: T3, γδ T cell receptor on human γδ T cells (human); assay: flow cytometry, dose-response binding at 37° C. on human γδ T cells
T3 construct: Mixed population of primary cells; also called AG000003021 (γδ T cells)
Description: Binding of antibodies to human γδ T cells or SKW cell lines expressing Vγ9/Vδ2, Vγ9/Vδ2 or Vγ5/Vδ2 was carried out by flow cytometry. Briefly, the cells were centrifuged at 300×g for 5 minutes and the pellet was resuspended in 34 ml fresh media (in RPMI+10% FBS). 50 μL of the cells were then plated (44K cells/well) into assay plates. Samples were incubated for one hour at 37° C. in tissue culture (TC) incubator followed by wash steps by adding 100 μl FACS staining buffer. Secondary detention antibodies (A647 conjugated anti-human IgG Fc specific antibody (2 μg/mL) along with AF488 anti mouse CD3, clone OKT3 at 1 ug/mL) were added at 50 μL/well to appropriate wells according to the plate map. After incubating for 60 minutes at 37° C. in the TC incubator, cells were again washed as described above. This is followed by resuspension in 20 μL/well running buffer containing 1:1000 dilution of Sytox blue dead cell stain and the plates were run on iQue Screener.
Gating and data analysis: Human anti-human Vγ9 antibody (VG9B2 mAb at 10 nM) was used to mark the gating of positive population. All cells were first gated for singlets on SCS-A vs. SCS-H dot plot, live/dead followed by CD3 positive population, and this subset of CD3 positive population was gated for Vγ9 positive binding using positive control mAb. Cells were also assessed for cell binding of control mAbs by RL1 (A647) Geomeans from the live cell population. Advanced metrics were used and normalization metrics were chosen to calculate fold over background wells containing secondary antibody alone (designated as ‘background’ within ForeCyt settings).

Binder	CD25+ (Vg9+ cells), flow staining [2] [%]	CD71+ (Vg9+ cells), flow staining [2] [%]	Granzyme B; Luninex (supernatant) [2]	IFNγ; Luninex (supernatant) [2]	IL6; Luninex (supernatant) [2]	TNFα; Luninex (supernatant) [2]	Vg9 T cell %, flow staining [2] [%]	Max. Activity [3] [fold over background]	also measured
VG9B416 (antibody, human IgG1, kappa) heavy: not shown light: EIVLTQSPGTLSLSPGDRATLSCRASQSVASSYLAWYQQKPGQSPRLLIYGASSRATGIPDRFSGSGSGTDFTLTISRLEPEDFAVYYCQQYGSSPPYTFGQGTKLEIKRTVAAPSVFIFPPSDEQLKSGTASVVCLLNNFYPREAKVQWKVDNALQSGNSQESVTEQDSKDSTYSLSSTLTLSKADYEKHKVYACEVTHQGLSSPVTKSFNRGEC									CD25+ (Vg9+ cells), flow staining [1]: 46.4%; CD71+ (Vg9+ cells), flow staining [1]: 98.8%; Granzyme B, Luminex (supernatant) [1]: 3390; IFNγ, Luminex (supernatant) [1]: 1180; IL6, Luminex (supernatant) [1]: 225; TNFα, Luminex (supernatant) [1]: 87; Vg9 T cell %, flow staining [1]: 13.9%
VG9B136 (antibody, human IgG1, kappa, V domains shown) VH: QVQLQQSGPGLVKPSQTLSLTCAISGDSVSSNRAAWNWIRQSPSKGLEWLGRTYYRSKWYNEYAASVKSRMSINPDTSKNQFSLQLNSVTPEDTALYYCARDLWELREACDIWGQGTMVTVSS VL: DIVMTQSPSFLSTFVGDRVTITCRASQGISSYLAWYQQKPGKVPKLLIYVASTLQSGVPSRFSGSGSGTEFTLTISSLQPEDFATYYCQQLNSYPFTFGPGTKVDIKR	33.3	94.9	1540	560	279	192	5.7		
VG9B369 (antibody, human IgG1, kappa, V domains shown) VH: EVQLLESGPTLVKPTQTLTLTCTFSGFSLSTIGVGVGWIRQPPGKALEWLSLIYWNDDKRYNPSLKSRLTITKDTSKNQVVLTMTNMDPVDTATYYCAHSHDWVHAFDIWGQGTMVTVSS VL: DIVMTQSPSSLSASVGDRVTITCQASQDISHYLNWYQQKPGKAPKFLIYDASNLDTGVPSRFSGSGSGTDFTFTISSLQPEDIATYYCQQYDNFPLTFGGGTKVEIKR	27.1	92.4	2630	1460	4900	138	6.1		
VG9B144 (antibody, human IgG1, lambda, V domains shown) VH: QVQLVQSGAEVKKPGASVKVSCKASGYTFTGYYMHWMRQAPGQGLEWMGWINPNSGATNKEQKFQGRVTMTRDTSISTAYMELSRLRSDDTAVYYCAREDDAFDVWGQGTMVTVSS VL: SSELTQDPAVSVALGQTVRITCQGDNLRNYYATWFQQKPGQAPVLVFFGKNNRPSGIPDRFSGSSSGDTASLTITGAQAEDEADYYCNSRDSSGNHVVFGGGTKLTVLG	20.6	89.6	1760	352	123	215	3.8		
VG9B410 (antibody, human IgG1, kappa) heavy: not shown light: DIQMTQSPSSVSASVGDRVTITCRASQGINSWLAWYQQKPGNAPKLLIYAASSLQSGVPSRFSGIGSGTDFIFTISSLQPEDFASYYCQQANSFPWTFGQGTKVEIKRTVAAPSVFIFPPSDEQLKSGTASVVCLLNNFYPREAKVQWKVDNALQSGNSQESVTEQDSKDSTYSLSSTLTLSKADYEKHKVYACEVTHQGLSSPVTKSFNRGEC	36.5	98.2	4390	2120	590	158	12.3		
VG9B386 (antibody, human IgG1, kappa, V domains shown) VH: EVQLVESGGGLVKPGGSLRLSCAASGFTFSSYSMIWVRQAPGKGLEWVSSIGSSSTYIYYADSVRGRFTISRDNAKTSLYLQMNSLRAEDTAMYFCARDGETGGFDYWGQGILVTVSS VL: EIVMTQSPGTLSLSPGERATLSCRASQSISRSYLAWYQQKPGQPPRLLIYGPSNRATGIPDRFSASGSGTDFTLTNSRLEPEDFAVYYCQQYGSLPLTFGGGTKVEIKR	29.7	97	2960	846	228	89	8.5		
VG9B125 (antibody, human IgG1, kappa, V domains shown) VH: EVQLVESGGTLVQPGGSLRLSCAVSGFTFSSYDMNWVRQAPGKGLEWVSYISSSSTAKYYADSVKGRFTISRDNAKNSLYLQMNSLWDEDTAVYYCAREDIVVVTPILQHWGQGTTVTVSS VL: EIVMTQSPATLSLSPGERAILSCRASQSVSKDLAWYQQKPGQAPRLLIYDASNRATGIPARISGSGSGTDFTLTISSLEPEDFAVYYCQQRINWPLFTFGPGTKVEIKR	24.8	70.8	3760	1490	587	959	12.4		
VG9B112 (antibody, human IgG1, kappa, V domains shown) VH: QVQLQQSGPGLVKPSQTLSLTCAISGDSVSSNSAAWNWIRQSPSRGLEWLGGTYYRSKWFNNYAVSVKSRITINPDTSTNQFSLQLNSVTPADTAVYYCARGEWGLRDAFDIWGQGTMVTVSS VL: DIQMTQSPSFLSASVGDRVIITCRASQGIHSYLAWYQQKPGKVPKLLIYVASTLQSGVPSRFSGSGSGTEFTLTISSLQPEDFATYYCQQLNSYPWTFGQGTKLEIKR	23.4	91.8	1140	461	256	1260	7.9		
VG9B387 (antibody, human IgG1, lambda, V domains shown) VH: EVQLVESGAEVKKPGASVKVSCKASGFTFTGYYLQWVRQAPGQGLEWMGWINPNSGYTDYAQRFQDRVTMTRDTSINTAYMELSRLRSDDTAVYYCARLDDAFDVWGQGTMVTVSS VL: SYELTQDPAVSVALGQTVRITCQGDSLRNYYAIWYQQKPGQAPVLVIFGKNNRPSGIPDRFSGSSSGTTASLTITGTQAEDEADYYCNSRDSSGNHWVFGGGTKLTVLG	24.7	89.7	1470	746	5200	135	5.5		
VG9B36 (antibody, human IgG1, kappa, V domains shown) VH: QVQLVESGGGLVKPGGSLRLSCASSGFTFSSYGMYWVRQAPGKGLEWVSSISTGSSYIYYADSVKGRFTISRDNAKNSLYLQMNSLRAEDTAVYYCARDKGLAVTGYIMDVWGQGTTVTVSS VL: EIVLTQSPSSLSASVGDRVTITCQASQDISNYLNWYQQKPGKAPKLLIYDASNLETGVPSRFSGSGSGTDFTFTISSLQPEDIAIYYCQQYDNLPMYTFGQGTKVEIKR								2410	
VG9B403 (antibody, human IgG1, kappa) heavy: not shown light: DIVMTQSPGTLSLSPGDRATLSCRASQSVASSYLAWYQQKPGQSPRLLIYGASSRATGIPDRFSGSGSGTDFTLTISRLEPEDFAVYYCQQYGSSPPYTFGQGTKVEIKRTVAAPSVFIFPPSDEQLKSGTASVVCLLNNFYPREAKVQWKVDNALQSGNSQESVTEQDSKDSTYSLSSTLTLSKADYEKHKVYACEVTHQGLSSPVTKSFNRGEC								2390	
VG9B191 (antibody, human IgG1, lambda, V domains shown) VH: EVQLVQSGGGLVKPGGSLRLSCAASGFTFSRYSMNWVRQAPGKGLEGVSSISSSSSYIYYADSVKGRFTISRDNAKNSLYLQMNSLRAEDTAVYYCARDGPTVNWDYYFDLWGRGTLVTVSS VL: QSVLTQPPSVSAAPGQKVTISCSGSSSNIGNNYVSWYQQLPGTAPKLLIYDNNKRPSGIPDRFSGSKSGTSATLGITGLQTGDEADYYCGTWDSSLSTSVVFGGGTKLTVLG								2370	
VG9B44 (antibody, human IgG1, kappa, V domains shown) VH: QVQLQQSGPGLVKPSQTLSLTCAISGDSVSSNSAAWNWIRQSPSRGLEWLGRTYYRSKWYNDYPISVKSRISINPDTSKNQFSLQLNSVTPEDTAVYYCARESGSYYTDGFDIWGQGTMVTVSS VL: DIQMTQSPSFLSASVGDRVTITCRASQGISSYLAWYQQKPGKAPKLLIYAASTLQSGVPSRFSGSGSGTEFTLTISSLQPEDFATYYCQEFNSYPYTFGQGTKLEIKR								2320	
